Molecular target: p185 (erbB2), 185 kDa receptor-type tyrosine kinase of the EGFR family, in MDA-MB453 breast adenocarcinoma … (UniProt P04626 23-1255, limits assumed)
Assay: cell-based or functional assay

B1: Don-1 EGF domain-containing fusion polypeptide (EGF domain and flanking amino acids 85-154 of murine Don-1, C-terminal Flag epitope tag), secreted by … (ligand, not shown: small tags and cut ends)
chain: LHVNSVSTTLSSWSGHARKCNETAKSYCVNGGVCYYIEGINQLSCKCPNGFFGQRCLEKLPLRLYMPDPK
B1 was tested, and the “phosphorylation of the 185 kDa protein in MDA-MB453 cells (antiphosphotyrosine Western blot)” value was roughly 10 fold.
